# Laboratory results: patent US20230127047A1, “SELECTIVE GIP RECEPTOR AGONISTS COMPRISING A CHELATING MOIETY FOR IMAGING AND THERAPY PURPOSES” (ANTAROS MEDICAL AB, priority 2020, published 2023)
# Read-outs that look alike come from different tables or passages of the source. Where a SMILES comes first, the peptide text is derived from it. Where no end group is shown, it is not given here. [ ]: non-standard residue; d: D form. The star is where a group is joined. DO3A(CH2CH2SO2CH2CH2) = O=C(O)CN1CCN(CCS(=O)(=O)CC*)CCN(CC(=O)O)CCN(CC(=O)O)CC1; DOTA = O=C(O)CN1CCN(CC(=O)O)CCN(CC(=O)*)CCN(CC(=O)O)CC1; Aib = CC(C)(N)C(=O)O
# T1: human GIP receptor (hGIPR) (Homo sapiens, UniProt P48546)
# T1 sequence (P48546 22-466): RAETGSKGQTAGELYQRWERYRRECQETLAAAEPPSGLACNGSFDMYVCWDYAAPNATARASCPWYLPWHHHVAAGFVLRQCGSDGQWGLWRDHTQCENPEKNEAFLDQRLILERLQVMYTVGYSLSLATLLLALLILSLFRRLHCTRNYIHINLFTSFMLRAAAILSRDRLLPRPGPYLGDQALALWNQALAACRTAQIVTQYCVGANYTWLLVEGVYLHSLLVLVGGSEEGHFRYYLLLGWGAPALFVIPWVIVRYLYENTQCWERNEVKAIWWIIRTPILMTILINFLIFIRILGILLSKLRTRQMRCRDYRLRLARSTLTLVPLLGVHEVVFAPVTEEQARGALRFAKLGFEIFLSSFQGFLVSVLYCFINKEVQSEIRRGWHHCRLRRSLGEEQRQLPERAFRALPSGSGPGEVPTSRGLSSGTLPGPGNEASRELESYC
# T2: human GIP receptor (human, UniProt P48546 22-466)
# T2 sequence (looked up): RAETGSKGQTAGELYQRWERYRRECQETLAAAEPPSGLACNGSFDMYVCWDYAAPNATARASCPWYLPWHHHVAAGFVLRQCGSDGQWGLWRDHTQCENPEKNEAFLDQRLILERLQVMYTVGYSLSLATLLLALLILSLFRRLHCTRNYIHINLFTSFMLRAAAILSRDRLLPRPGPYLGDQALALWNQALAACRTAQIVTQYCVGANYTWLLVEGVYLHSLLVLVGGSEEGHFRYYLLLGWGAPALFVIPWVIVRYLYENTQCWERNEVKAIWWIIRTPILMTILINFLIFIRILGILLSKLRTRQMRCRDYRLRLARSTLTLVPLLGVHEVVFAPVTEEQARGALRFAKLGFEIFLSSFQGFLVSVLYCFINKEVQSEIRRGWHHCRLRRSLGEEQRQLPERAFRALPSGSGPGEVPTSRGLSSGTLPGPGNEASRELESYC
# Assays:
# [1] = biological target: T3, glucagon receptor (hGCGR) (Homo sapiens, UniProt P47871); assay: cAMP response (HTRF) in PSC-HEK-293 cells expressing human glucagon receptor; format: cell-based
# T3 construct: expressed in transfected cells
# Method: (§1) Each vial contained 1.8 ml cells. The vials were slowly frozen to −80° C. in isopropanol, and then transferred in liquid nitrogen for storage.
# (§2) Prior to their use, frozen cells were thawed quickly at 37° C. and washed (5 min at 900 rpm) with 20 ml cell buffer (lx HBSS; 20 mM HEPES, with 0.1% BSA).
# (§3) For measurement of cAMP generation, 5 μl cells (final 5000 cells/well) and 5 μl of test compound were added to a 384-well plate, followed by incubation for 30 min at room temperature.
# (§4) The cAMP generated was determined using a kit from Cisbio Corp. based on HTRF (Homogenous Time Resolved Fluorescence). The cAMP assay was performed according to manufacturer's instructions (Cisbio).
# (§5) cAMP content of cells was determined using a kit from Cisbio Corp. (cat. no. 62AM4PEC) based on HTRF (Homogenous Time Resolved Fluorescence). […] Medium was then removed and cells washed with PBS lacking calcium and magnesium, followed by proteinase treatment with accutase (Sigma-Aldrich cat. no. A6964). Detached cells were washed and resuspended in assay buffer (1×HBSS; 20 mM HEPES, 0.1% BSA, 2 mM IBMX) and cellular density determined. They were then diluted to 400000 cells/ml and 25 μl-aliquots dispensed into the wells of 96-well plates. For measurement, 25 μl of test compound in assay buffer was added to the wells, followed by incubation for 30 minutes at room temperature.
# [2] = biological target: human GLP-1 receptor (hGLP-1R) (Homo sapiens, UniProt P43220); assay: cAMP response (HTRF) in PSC-HEK-293 cells expressing human GLP-1 receptor; format: cell-based
# Method: as §1, §2, §3, §4, §5
# [3] = biological target: T1, human GIP receptor (hGIPR); assay: cAMP response (HTRF) in PSC-HEK-293 cells expressing human GIP receptor; format: cell-based; settings: from EC50 values of Table 5
# Method: as §1, §2, §3, §4, §5
# [4] = Plasma stability testing (radio-HPLC) in NHP plasma; format: in vitro ADME, cynomolgus monkey; settings: for Intact peptide (%): NHP plasma, 37° C.
# [5] = biological target: T2, human GIP receptor; assay: cell-based or functional assay
# [6] = biological target: human GLP-1 receptor (human, UniProt P43220 24-463); assay: cell-based or functional assay
# [7] = biological target: human glucagon receptor (human, UniProt P47871 26-477); assay: cell-based or functional assay
# [8] = biological target: T2, human GIP receptor; assay: [125I]GIP displacement, SPA beads with hGIPR HEK-293 membranes
# [9] = biological target: T2, human GIP receptor; assay: [125I]GIP displacement IC50, reference native GIP (SEQ ID NO: 1)
# [10] = biological target: T2, human GIP receptor; assay: [125I]GIP displacement IC50, reference GIP(1-30) (SEQ ID NO: 2)
# T3 sequence (P47871 26-477): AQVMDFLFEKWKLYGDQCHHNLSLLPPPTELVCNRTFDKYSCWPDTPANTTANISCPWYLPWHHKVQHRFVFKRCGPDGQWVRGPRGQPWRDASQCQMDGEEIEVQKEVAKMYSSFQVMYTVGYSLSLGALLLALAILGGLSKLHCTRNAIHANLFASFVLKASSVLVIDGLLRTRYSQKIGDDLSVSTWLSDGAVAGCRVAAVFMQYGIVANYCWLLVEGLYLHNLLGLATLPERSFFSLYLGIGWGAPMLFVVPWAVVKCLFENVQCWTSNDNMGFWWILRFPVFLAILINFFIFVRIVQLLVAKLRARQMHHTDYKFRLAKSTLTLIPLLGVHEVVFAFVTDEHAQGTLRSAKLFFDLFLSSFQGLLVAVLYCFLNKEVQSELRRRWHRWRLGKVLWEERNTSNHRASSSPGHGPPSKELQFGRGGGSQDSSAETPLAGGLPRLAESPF
# Sequence of human glucagon receptor (P47871 26-477): as above
# Sequence of human GLP-1 receptor (hGLP-1R) (P43220 24-463): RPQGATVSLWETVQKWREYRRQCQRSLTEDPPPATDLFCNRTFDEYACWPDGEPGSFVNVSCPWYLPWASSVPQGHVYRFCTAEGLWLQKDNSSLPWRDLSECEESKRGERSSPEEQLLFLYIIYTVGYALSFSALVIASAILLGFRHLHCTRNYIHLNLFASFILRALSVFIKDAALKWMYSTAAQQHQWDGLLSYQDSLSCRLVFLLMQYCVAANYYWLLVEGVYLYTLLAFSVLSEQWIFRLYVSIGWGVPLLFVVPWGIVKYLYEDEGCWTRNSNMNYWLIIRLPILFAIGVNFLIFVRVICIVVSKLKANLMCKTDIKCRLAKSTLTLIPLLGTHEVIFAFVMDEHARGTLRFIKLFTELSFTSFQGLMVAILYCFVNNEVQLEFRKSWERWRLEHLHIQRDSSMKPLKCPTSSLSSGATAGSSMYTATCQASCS
molecule,measurement,setting,value
"CC[C@H](C)[C@H](NC(=O)[C@H](CO)NC(=O)[C@H](Cc1ccc(O)cc1)NC(=O)[C@H](CC(=O)O)NC(=O)[C@H](CO)NC(=O)[C@@H](NC(=O)[C@H](Cc1ccccc1)NC(=O)[C@@H](NC(=O)CNC(=O)[C@H](CCC(=O)O)NC(=O)[C@H](C)NC(=O)[C@@H](N)Cc1ccc(O)cc1)[C@@H](C)O)[C@@H](C)CC)C(=O)N[C@@H](C)C(=O)N[C@@H](CCSC)C(=O)N[C@@H](CC(=O)O)C(=O)N[C@@H](CCCCN)C(=O)N[C@H](C(=O)N[C@@H](Cc1c[nH]cn1)C(=O)N[C@@H](CCC(N)=O)C(=O)N[C@@H](CCC(N)=O)C(=O)N[C@@H](CC(=O)O)C(=O)N[C@@H](Cc1ccccc1)C(=O)N[C@H](C(=O)N[C@@H](CC(N)=O)C(=O)N[C@@H](Cc1c[nH]c2ccccc12)C(=O)N[C@@H](CC(C)C)C(=O)N[C@@H](CC(C)C)C(=O)N[C@@H](C)C(=O)N[C@@H](CCC(N)=O)C(=O)N[C@@H](CCCCN)C(=O)NCC(=O)N[C@@H](CCCCN)C(=O)N[C@@H](CCCCN)C(=O)N[C@@H](CC(N)=O)C(=O)N[C@@H](CC(=O)O)C(=O)N[C@@H](Cc1c[nH]c2ccccc12)C(=O)N[C@@H](CCCCN)C(=O)N[C@@H](Cc1c[nH]cn1)C(=O)N[C@@H](CC(N)=O)C(=O)N[C@H](C(=O)N[C@H](C(=O)N[C@@H](CCC(N)=O)C(=O)O)[C@@H](C)O)[C@@H](C)CC)C(C)C)[C@@H](C)CC [SEQ ID NO: 1, YAEGTFISDYSIAMDKIHQQDFVNWLLAQKGKKNDWKHNITQ-OH]",EC50,[1],> 10 nM
same,EC50,"[1]; read-out: EC50 hGCGR, 384-well format",> 10 nM
"CC[C@H](C)[C@H](NC(=O)[C@H](CO)NC(=O)[C@H](Cc1ccc(O)cc1)NC(=O)[C@H](CC(=O)O)NC(=O)[C@H](CO)NC(=O)[C@@H](NC(=O)[C@H](Cc1ccccc1)NC(=O)[C@@H](NC(=O)CNC(=O)[C@H](CCC(=O)O)NC(=O)[C@H](C)NC(=O)[C@@H](N)Cc1ccc(O)cc1)[C@@H](C)O)[C@@H](C)CC)C(=O)N[C@@H](C)C(=O)N[C@@H](CCSC)C(=O)N[C@@H](CC(=O)O)C(=O)N[C@@H](CCCCN)C(=O)N[C@H](C(=O)N[C@@H](Cc1c[nH]cn1)C(=O)N[C@@H](CCC(N)=O)C(=O)N[C@@H](CCC(N)=O)C(=O)N[C@@H](CC(=O)O)C(=O)N[C@@H](Cc1ccccc1)C(=O)N[C@H](C(=O)N[C@@H](CC(N)=O)C(=O)N[C@@H](Cc1c[nH]c2ccccc12)C(=O)N[C@@H](CC(C)C)C(=O)N[C@@H](CC(C)C)C(=O)N[C@@H](C)C(=O)N[C@@H](CCC(N)=O)C(=O)N[C@@H](CCCCN)C(N)=O)C(C)C)[C@@H](C)CC [SEQ ID NO: 2, YAEGTFISDYSIAMDKIHQQDFVNWLLAQK-NH2]",EC50,[2],> 10 nM
same,EC50,[1],> 10 nM
"CC[C@H](C)[C@H](NC(=O)[C@H](CO)NC(=O)[C@H](CC(C)C)NC(=O)[C@H](CC(=O)O)NC(=O)[C@H](CO)NC(=O)[C@@H](NC(=O)[C@H](Cc1ccccc1)NC(=O)[C@@H](NC(=O)CNC(=O)[C@H](CCC(=O)O)NC(=O)C(C)(C)NC(=O)[C@@H](N)Cc1ccc(O)cc1)[C@@H](C)O)[C@@H](C)CC)C(=O)N[C@@H](C)C(=O)N[C@@H](CC(C)C)C(=O)N[C@@H](CC(=O)O)C(=O)N[C@@H](CCCNC(=N)N)C(=O)N[C@H](C(=O)N[C@@H](Cc1c[nH]cn1)C(=O)N[C@@H](CCC(N)=O)C(=O)N[C@@H](CCC(=O)O)C(=O)N[C@@H](CCC(=O)O)C(=O)N[C@@H](Cc1ccccc1)C(=O)N[C@H](C(=O)N[C@@H](CCC(N)=O)C(=O)N[C@@H](Cc1c[nH]c2ccccc12)C(=O)N[C@@H](CC(C)C)C(=O)N[C@@H](CC(C)C)C(=O)N[C@@H](C)C(=O)NCC(=O)NCC(=O)N[C@@H](CSCCS(=O)(=O)CCN1CCN(CC(=O)O)CCN(CC(=O)O)CCN(CC(=O)O)CC1)C(N)=O)[C@@H](C)CC)[C@@H](C)CC [SEQ ID NO: 5, Y-Aib-EGTFISDLSIALDRIHQEEFIQWLLAGGC(VS-DO3A)-NH2] (H-Y[Aib]EGTFISDLSIALDRIHQEEFIQWLLAGGC(DO3A(CH2CH2SO2CH2CH2))-NH2; N-terminus assumed)",EC50,[2],> 10 nM
same,potency (ability to activate the human GIP receptor) compared to native GIP or GIP(1-30),[3],lower potency
same,EC50,[1],> 10 nM
SEQ ID NOs: 3 (Y[Aib]EGTFISDLSIALDRIHQEEFIEWLLAGGK(DOTA)-NH2),potency (ability to activate the human GIP receptor) compared to native GIP or GIP(1-30),[3],lower potency
Y-Aib-EGTFISDLSIALDRIHQEEFIEWLLAGGK(DOTA(Ga))-NH2 (Y[Aib]EGTFISDLSIALDRIHQEEFIEWLLAGGK(DOTA)-NH2; also: Ga (68Ga) complexed in DOTA on Lys31) [SEQ ID NO: 4],potency (ability to activate the human GIP receptor) compared to native GIP or GIP(1-30),[3],lower potency
same,Intact peptide (%),[4]; 0 min,99.5%
same,Intact peptide (%),[4]; 15 min,98.65%
same,Intact peptide (%),[4]; 45 min,96.31%
same,Intact peptide (%),[4]; 90 min,92.98%
same,radioactive signal arising from intact peptide,"[4]; plasma from NHP, after 90 minutes incubation",> 92%
hGlucagon (from UniProt P01275 53-81) (ligand),"EC50 hGIP R, cAMP formation (HTRF), 96-well format",[5],> 10 nM
same,"EC50 hGIP R, cAMP formation (HTRF), 384-well format",[5],> 10 nM
"YAEGTFISDYSIAMDKIHQQDFVNWLLAQK-NH2 (ligand) [GIP(1-30) amide, SEQ ID NO: 2]","EC50 hGLP-1 R, cAMP formation (HTRF), 96-well format",[6],> 10 nM
same,"EC50 hGCGR, cAMP formation (HTRF), 96-well format",[7],> 10 nM
"H-Y[Aib]EGTFISDLSIALDRIHQEEFIEWLLAGGK(DOTA)-NH2 (also: Ga3+ complexed in DOTA on Lys31, also called Ga-S02-GIP-T4) [SEQ ID NO: 4 (GIP(1-30) analog with K(DOTA(Ga)) at position 31)]",IC50,[8],0.25 nM
same,fold improvement of binding affinity against native GIP,[9],~12 fold
same,fold improvement of binding affinity against GIP(1-30),[10],~5 fold
same,"EC50 hGLP-1 R, cAMP formation (HTRF), 96-well format",[6],> 10 nM
same,"EC50 hGCGR, cAMP formation (HTRF), 96-well format",[7],> 10 nM
same,"EC50 hGIP R, cAMP formation (HTRF), 96-well format",[5],0.00109 nM
"Y[Aib]EGTFISDLSIALDRIHQEEFIQWLLAGGC(DO3A(CH2CH2SO2CH2CH2))-NH2 (Printed: Y-Aib-EGTFISDLSIALDRIHQEEFIQWLLAGGC(VS-DO3A)-NH2) [SEQ ID NO: 5 (GIP(1-30) analog with C(VS-DO3A) at position 31, unloaded)]",IC50,[8],0.22 nM
same,fold improvement of binding affinity against native GIP,[9],~12 fold
same,fold improvement of binding affinity against GIP(1-30),[10],~5 fold
same,"EC50 hGLP-1 R, cAMP formation (HTRF), 384-well format",[6],> 10 nM
same,"EC50 hGCGR, cAMP formation (HTRF), 384-well format",[7],> 10 nM
same,"EC50 hGIP R, cAMP formation (HTRF), 384-well format",[5],0.00022 nM
"YAEGTFISDYSIAMDKIHQQDFVNWLLAQKGKKNDWKHNITQ-OH (ligand) [GIP (glucose-dependent insulinotropic polypeptide), SEQ ID NO: 1]","EC50 hGCGR, cAMP formation (HTRF), 96-well format",[7],> 10 nM
same,"EC50 hGCGR, cAMP formation (HTRF), 384-well format",[7],> 10 nM
"Y[Aib]EGTFISDLSIALDRIHQEEFIEWLLAGGK(DOTA)-NH2 [SEQ ID NO: 3 (GIP(1-30) analog with K(DOTA) at position 31, unloaded)]","EC50 hGLP-1 R, cAMP formation (HTRF), 96-well format",[6],> 10 nM
same,"EC50 hGCGR, cAMP formation (HTRF), 96-well format",[7],> 10 nM
same,"EC50 hGIP R, cAMP formation (HTRF), 96-well format",[5],0.00113 nM
